# Reference: the supplement of paper PMC11316812
# ± gives the standard deviation of the averaged measurements.
# How the values were obtained:
# MCF7 = experiment: percentage of EdU-negative (G0-arrested) nuclei per well, 72 h; higher = more G0 arrest; conditions: reference: sequence is the full UniProt precursor, the tested protein was the secreted form or ectodomain
# hTERT-HMEC = experiment: as above; conditions: reference: sequence is the full UniProt precursor, the tested protein was the secreted form or ectodomain
# [1] = protein concentration 0.0175 µM
# [2] = protein concentration 0.0134286 µM
# [3] = protein concentration 0.134286 µM
# [4] = protein concentration 0.03125 µM
# [5] = protein concentration 0.3125 µM
# [6] = protein concentration 0.0225 µM
# [7] = protein concentration 0.0257143 µM
# [8] = protein concentration 0.257143 µM
# [9] = protein concentration 0.0242225 µM
# [10] = protein concentration 0.242225 µM
# [11] = protein concentration 0.0165714 µM
# [12] = protein concentration 0.165714 µM
# [13] = protein concentration 0.0191429 µM
# [14] = protein concentration 0.191429 µM
# [15] = protein concentration 0.00625 µM
# [16] = protein concentration 0.0625 µM
# [17] = protein concentration 0.0357143 µM
# [18] = protein concentration 0.357143 µM
# [19] = protein concentration 0.00525 µM
# [20] = protein concentration 0.0525 µM
# [21] = protein concentration 0.012015 µM
# [22] = protein concentration 0.12015 µM
# [23] = protein concentration 0.0111429 µM
# [24] = protein concentration 0.111429 µM
# [25] = protein concentration 0.00725 µM
# [26] = protein concentration 0.0725 µM
# 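Note: secreted proteins added to cultured cells, EdU pulse at the end, nuclei found by Hoechst imaging, EdU status from nuclear versus surrounding ring intensity ratio, PBS as neutral control.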
# Sequence of Q6ZMJ2 (chain, as listed by the source): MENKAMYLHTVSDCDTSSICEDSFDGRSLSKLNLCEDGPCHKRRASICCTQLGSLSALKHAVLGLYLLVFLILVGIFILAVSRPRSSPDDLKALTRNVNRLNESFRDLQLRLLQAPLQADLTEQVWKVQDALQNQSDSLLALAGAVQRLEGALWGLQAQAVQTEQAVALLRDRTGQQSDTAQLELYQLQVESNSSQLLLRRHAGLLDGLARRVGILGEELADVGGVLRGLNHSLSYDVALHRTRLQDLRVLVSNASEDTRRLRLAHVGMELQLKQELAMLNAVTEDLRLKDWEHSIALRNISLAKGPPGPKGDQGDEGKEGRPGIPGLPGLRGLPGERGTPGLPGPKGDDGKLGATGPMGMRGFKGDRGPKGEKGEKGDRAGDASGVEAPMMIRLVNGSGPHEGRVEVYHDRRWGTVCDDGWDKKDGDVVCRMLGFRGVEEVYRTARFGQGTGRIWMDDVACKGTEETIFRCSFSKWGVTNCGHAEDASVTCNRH
# Sequence of Q9BXJ3 (chain, as listed by the source): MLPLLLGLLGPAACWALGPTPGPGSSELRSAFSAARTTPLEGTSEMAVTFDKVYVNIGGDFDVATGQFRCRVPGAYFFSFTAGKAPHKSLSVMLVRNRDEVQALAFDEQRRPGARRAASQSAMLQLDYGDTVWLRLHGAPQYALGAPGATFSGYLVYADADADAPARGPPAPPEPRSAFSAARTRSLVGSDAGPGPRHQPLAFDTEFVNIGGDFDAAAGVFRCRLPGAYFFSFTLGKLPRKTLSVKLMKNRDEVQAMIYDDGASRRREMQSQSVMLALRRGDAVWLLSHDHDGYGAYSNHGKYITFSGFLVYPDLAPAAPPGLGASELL
# Sequence of Q8WXD2 (chain, as listed by the source): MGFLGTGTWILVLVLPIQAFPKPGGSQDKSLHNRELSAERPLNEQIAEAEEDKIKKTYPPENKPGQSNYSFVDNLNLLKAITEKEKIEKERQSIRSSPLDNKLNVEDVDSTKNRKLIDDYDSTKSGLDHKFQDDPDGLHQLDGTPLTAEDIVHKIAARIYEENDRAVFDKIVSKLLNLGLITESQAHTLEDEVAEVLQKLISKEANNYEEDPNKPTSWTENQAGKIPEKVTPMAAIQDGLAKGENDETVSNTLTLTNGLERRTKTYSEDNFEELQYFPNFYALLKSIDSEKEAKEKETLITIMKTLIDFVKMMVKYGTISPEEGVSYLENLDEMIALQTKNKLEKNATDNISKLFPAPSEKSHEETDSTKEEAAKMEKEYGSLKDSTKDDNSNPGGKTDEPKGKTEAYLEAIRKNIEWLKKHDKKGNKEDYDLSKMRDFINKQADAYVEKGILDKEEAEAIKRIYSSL
# Sequence of Q8IWL2 (chain, as listed by the source): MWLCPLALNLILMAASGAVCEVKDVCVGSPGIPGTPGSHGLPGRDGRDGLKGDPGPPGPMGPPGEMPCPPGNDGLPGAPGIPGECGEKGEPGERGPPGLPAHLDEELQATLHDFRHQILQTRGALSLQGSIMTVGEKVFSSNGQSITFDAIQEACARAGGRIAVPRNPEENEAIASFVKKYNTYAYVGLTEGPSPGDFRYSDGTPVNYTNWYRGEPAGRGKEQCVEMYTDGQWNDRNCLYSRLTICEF
# Sequence of Q9BZP6 (chain, as listed by the source): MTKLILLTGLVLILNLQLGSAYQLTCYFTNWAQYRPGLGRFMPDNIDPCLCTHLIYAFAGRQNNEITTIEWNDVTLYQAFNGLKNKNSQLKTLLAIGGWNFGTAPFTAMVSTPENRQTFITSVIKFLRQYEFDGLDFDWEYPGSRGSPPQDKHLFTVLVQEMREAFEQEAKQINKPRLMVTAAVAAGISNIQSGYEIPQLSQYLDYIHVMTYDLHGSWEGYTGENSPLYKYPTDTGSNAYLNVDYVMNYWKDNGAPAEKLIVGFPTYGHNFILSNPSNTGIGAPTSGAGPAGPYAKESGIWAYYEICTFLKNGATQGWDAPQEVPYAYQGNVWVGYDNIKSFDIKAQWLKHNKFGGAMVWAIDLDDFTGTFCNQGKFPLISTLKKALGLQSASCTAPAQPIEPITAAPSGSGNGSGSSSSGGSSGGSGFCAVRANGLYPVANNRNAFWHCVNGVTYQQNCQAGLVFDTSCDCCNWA
# Sequence of Q9ULB1 (chain, as listed by the source): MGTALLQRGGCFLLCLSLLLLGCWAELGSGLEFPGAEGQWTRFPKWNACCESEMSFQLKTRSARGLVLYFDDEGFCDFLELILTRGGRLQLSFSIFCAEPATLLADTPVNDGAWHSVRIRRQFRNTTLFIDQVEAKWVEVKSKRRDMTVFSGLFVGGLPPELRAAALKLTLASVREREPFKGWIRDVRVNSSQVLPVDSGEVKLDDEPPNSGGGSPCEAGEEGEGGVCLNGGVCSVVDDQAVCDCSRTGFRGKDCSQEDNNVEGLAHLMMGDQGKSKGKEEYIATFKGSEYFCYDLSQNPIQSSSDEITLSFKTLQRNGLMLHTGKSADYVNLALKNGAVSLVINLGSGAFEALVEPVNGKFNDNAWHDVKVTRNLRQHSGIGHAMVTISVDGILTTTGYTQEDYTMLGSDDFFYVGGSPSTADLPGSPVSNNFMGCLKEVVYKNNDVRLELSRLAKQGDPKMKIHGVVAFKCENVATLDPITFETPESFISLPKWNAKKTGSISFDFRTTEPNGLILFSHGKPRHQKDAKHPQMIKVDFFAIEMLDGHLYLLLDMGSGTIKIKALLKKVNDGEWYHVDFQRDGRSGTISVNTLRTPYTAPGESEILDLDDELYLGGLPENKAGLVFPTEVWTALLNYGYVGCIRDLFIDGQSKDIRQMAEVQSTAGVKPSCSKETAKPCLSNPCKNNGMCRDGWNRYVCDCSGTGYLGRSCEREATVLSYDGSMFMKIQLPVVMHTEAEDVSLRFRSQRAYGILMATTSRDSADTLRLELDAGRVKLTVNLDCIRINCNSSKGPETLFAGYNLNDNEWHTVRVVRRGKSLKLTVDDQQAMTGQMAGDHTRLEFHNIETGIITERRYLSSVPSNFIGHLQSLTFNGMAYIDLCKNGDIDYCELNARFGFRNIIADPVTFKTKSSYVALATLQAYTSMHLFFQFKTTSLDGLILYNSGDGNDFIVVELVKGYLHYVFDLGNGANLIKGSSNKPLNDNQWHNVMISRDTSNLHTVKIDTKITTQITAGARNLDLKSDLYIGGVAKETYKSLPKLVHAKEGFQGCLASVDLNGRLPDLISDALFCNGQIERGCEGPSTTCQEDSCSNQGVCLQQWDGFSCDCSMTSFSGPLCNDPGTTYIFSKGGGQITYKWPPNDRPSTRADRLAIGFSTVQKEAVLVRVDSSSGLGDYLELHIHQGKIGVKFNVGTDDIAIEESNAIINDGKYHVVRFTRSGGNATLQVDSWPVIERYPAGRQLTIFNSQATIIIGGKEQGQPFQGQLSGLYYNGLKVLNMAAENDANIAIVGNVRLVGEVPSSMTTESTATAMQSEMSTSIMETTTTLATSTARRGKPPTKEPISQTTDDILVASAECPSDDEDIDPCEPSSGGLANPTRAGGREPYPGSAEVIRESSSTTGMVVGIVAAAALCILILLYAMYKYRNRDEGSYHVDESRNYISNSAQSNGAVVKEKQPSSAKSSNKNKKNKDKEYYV
# Sequence of Q6UXN8 (chain, as listed by the source): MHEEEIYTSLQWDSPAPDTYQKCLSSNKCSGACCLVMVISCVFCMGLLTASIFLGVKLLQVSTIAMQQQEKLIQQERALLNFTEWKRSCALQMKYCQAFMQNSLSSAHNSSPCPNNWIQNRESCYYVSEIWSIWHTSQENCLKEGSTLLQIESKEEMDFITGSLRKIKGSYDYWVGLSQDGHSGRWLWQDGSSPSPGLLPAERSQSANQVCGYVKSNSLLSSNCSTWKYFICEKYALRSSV
# Sequence of Q8IWL1 (chain, as listed by the source): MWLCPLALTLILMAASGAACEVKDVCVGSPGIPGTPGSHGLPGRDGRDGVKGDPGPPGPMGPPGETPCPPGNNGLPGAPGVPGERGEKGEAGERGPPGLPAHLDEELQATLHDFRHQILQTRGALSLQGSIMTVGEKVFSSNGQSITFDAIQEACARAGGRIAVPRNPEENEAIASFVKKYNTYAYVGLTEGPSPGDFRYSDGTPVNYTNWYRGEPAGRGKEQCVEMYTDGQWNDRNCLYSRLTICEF
# Sequence of Q9UBP4 (chain, as listed by the source): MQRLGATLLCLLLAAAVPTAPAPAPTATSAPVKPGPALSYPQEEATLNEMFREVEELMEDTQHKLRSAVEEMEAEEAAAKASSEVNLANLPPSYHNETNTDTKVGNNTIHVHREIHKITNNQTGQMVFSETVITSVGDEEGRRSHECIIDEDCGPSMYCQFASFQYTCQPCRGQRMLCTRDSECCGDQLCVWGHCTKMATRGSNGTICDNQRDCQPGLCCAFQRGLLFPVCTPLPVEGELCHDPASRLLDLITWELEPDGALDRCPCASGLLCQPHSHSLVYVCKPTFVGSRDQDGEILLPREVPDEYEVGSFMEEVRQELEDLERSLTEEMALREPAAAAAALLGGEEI
substance,measurement,setting,value
P08572,percentage of EdU-negative,MCF7; protein concentration 0.008 µM,24.1 ± 2.1%
same,percentage of EdU-negative,MCF7; protein concentration 0.08 µM,25.4 ± 0.67%
same,percentage of EdU-negative,hTERT-HMEC; protein concentration 0.008 µM,4.54 ± 0.088%
same,percentage of EdU-negative,hTERT-HMEC; protein concentration 0.08 µM,5.63 ± 0.46%
P16144,percentage of EdU-negative,MCF7; [1],24.1 ± 3.2%
same,percentage of EdU-negative,MCF7; protein concentration 0.175 µM,28.6 ± 0.6%
same,percentage of EdU-negative,hTERT-HMEC; [1],5.31 ± 0.28%
same,percentage of EdU-negative,hTERT-HMEC; protein concentration 0.175 µM,5.29 ± 0.16%
P20908,percentage of EdU-negative,MCF7; [2],23.71 ± 0.12%
same,percentage of EdU-negative,MCF7; [3],28.6 ± 1.4%
same,percentage of EdU-negative,hTERT-HMEC; [2],5.6 ± 0.17%
same,percentage of EdU-negative,hTERT-HMEC; [3],25.8 ± 0.52%
P32881,percentage of EdU-negative,MCF7; [4],46 ± 0.63%
same,percentage of EdU-negative,MCF7; [5],49.3 ± 0.71%
same,percentage of EdU-negative,hTERT-HMEC; [4],25.9 ± 1.2%
same,percentage of EdU-negative,hTERT-HMEC; [5],30.4 ± 4.1%
Q6UXN8,percentage of EdU-negative,MCF7; [6],24.9 ± 2.2%
same,percentage of EdU-negative,MCF7; protein concentration 0.225 µM,25.2 ± 1.4%
same,percentage of EdU-negative,hTERT-HMEC; [6],4.27 ± 1%
same,percentage of EdU-negative,hTERT-HMEC; protein concentration 0.225 µM,4.93 ± 0.51%
Q6ZMJ2,percentage of EdU-negative,MCF7; [7],24.7 ± 1.6%
same,percentage of EdU-negative,MCF7; [8],24.2 ± 0.89%
same,percentage of EdU-negative,hTERT-HMEC; [7],4.96 ± 0.49%
same,percentage of EdU-negative,hTERT-HMEC; [8],8.139 ± 0.079%
Q8IWL1,percentage of EdU-negative,MCF7; [6],28.1 ± 0.35%
same,percentage of EdU-negative,MCF7; protein concentration 0.225 µM,26.4 ± 0.85%
same,percentage of EdU-negative,hTERT-HMEC; [6],5.29 ± 1.1%
same,percentage of EdU-negative,hTERT-HMEC; protein concentration 0.225 µM,6.43 ± 1.3%
Q8IWL2,percentage of EdU-negative,MCF7; [4],25.4 ± 0.46%
same,percentage of EdU-negative,MCF7; [5],26.7 ± 0.54%
same,percentage of EdU-negative,hTERT-HMEC; [4],5.36 ± 0.08%
same,percentage of EdU-negative,hTERT-HMEC; [5],6.18 ± 0.17%
Q8NBS9,percentage of EdU-negative,MCF7; [9],27.1 ± 0.28%
same,percentage of EdU-negative,MCF7; [10],27.4 ± 0.94%
same,percentage of EdU-negative,hTERT-HMEC; [9],4.77 ± 0.42%
same,percentage of EdU-negative,hTERT-HMEC; [10],8.37 ± 0.54%
Q8WXD2,percentage of EdU-negative,MCF7; [11],25.6 ± 3.6%
same,percentage of EdU-negative,MCF7; [12],29.2 ± 1.7%
same,percentage of EdU-negative,hTERT-HMEC; [11],5.59 ± 0.58%
same,percentage of EdU-negative,hTERT-HMEC; [12],6.19 ± 0.24%
Q9BXJ3,percentage of EdU-negative,MCF7; [13],27.3 ± 3.6%
same,percentage of EdU-negative,MCF7; [14],23.8 ± 1.1%
same,percentage of EdU-negative,hTERT-HMEC; [13],5.17 ± 0.79%
same,percentage of EdU-negative,hTERT-HMEC; [14],4.77 ± 0.24%
Q9BXP8,percentage of EdU-negative,MCF7; [15],26.6 ± 1.2%
same,percentage of EdU-negative,MCF7; [16],28.7 ± 1.2%
same,percentage of EdU-negative,hTERT-HMEC; [15],5.11 ± 0.6%
same,percentage of EdU-negative,hTERT-HMEC; [16],6.47 ± 0.67%
Q9BYZ8,percentage of EdU-negative,MCF7; protein concentration 0.02 µM,24.8 ± 0.7%
same,percentage of EdU-negative,MCF7; protein concentration 0.2 µM,29.6 ± 2.5%
same,percentage of EdU-negative,hTERT-HMEC; protein concentration 0.02 µM,5.55 ± 0.64%
same,percentage of EdU-negative,hTERT-HMEC; protein concentration 0.2 µM,19.9 ± 4.5%
Q9BZP6,percentage of EdU-negative,MCF7; [17],23.1 ± 1.2%
same,percentage of EdU-negative,MCF7; [18],27.6 ± 0.63%
same,percentage of EdU-negative,hTERT-HMEC; [17],5.02 ± 0.9%
same,percentage of EdU-negative,hTERT-HMEC; [18],6.66 ± 0.26%
Q9BZZ2,percentage of EdU-negative,MCF7; [19],26.9 ± 2.3%
same,percentage of EdU-negative,MCF7; [20],31.1 ± 2.4%
same,percentage of EdU-negative,hTERT-HMEC; [19],4.58 ± 0.46%
same,percentage of EdU-negative,hTERT-HMEC; [20],21.5 ± 2.5%
Q9HBE5,percentage of EdU-negative,MCF7; [17],24.6 ± 3%
same,percentage of EdU-negative,MCF7; [18],26.38 ± 0.26%
same,percentage of EdU-negative,hTERT-HMEC; [17],4.85 ± 0.64%
same,percentage of EdU-negative,hTERT-HMEC; [18],5.88 ± 0.38%
Q9NP99,percentage of EdU-negative,MCF7; [6],25.2 ± 3.3%
same,percentage of EdU-negative,MCF7; protein concentration 0.225 µM,25.7 ± 1.1%
same,percentage of EdU-negative,hTERT-HMEC; [6],4.69 ± 0.52%
same,percentage of EdU-negative,hTERT-HMEC; protein concentration 0.225 µM,5.446 ± 0.054%
Q9NQS3,percentage of EdU-negative,MCF7; [6],25.9 ± 3.8%
same,percentage of EdU-negative,MCF7; protein concentration 0.225 µM,26.1 ± 2.9%
same,percentage of EdU-negative,hTERT-HMEC; [6],4.83 ± 1.2%
same,percentage of EdU-negative,hTERT-HMEC; protein concentration 0.225 µM,4.728 ± 0.0098%
Q9UBP4,percentage of EdU-negative,MCF7; [21],24.3 ± 2.6%
same,percentage of EdU-negative,MCF7; [22],25.52 ± 0.066%
same,percentage of EdU-negative,hTERT-HMEC; [21],5.79 ± 1.3%
same,percentage of EdU-negative,hTERT-HMEC; [22],6.35 ± 0.93%
Q9ULB1,percentage of EdU-negative,MCF7; [23],25.5 ± 2.5%
same,percentage of EdU-negative,MCF7; [24],26.3 ± 2.4%
same,percentage of EdU-negative,hTERT-HMEC; [23],5.3 ± 0.36%
same,percentage of EdU-negative,hTERT-HMEC; [24],9.04 ± 0.11%
Q9ULL4,percentage of EdU-negative,MCF7; [25],23.6 ± 1.5%
same,percentage of EdU-negative,MCF7; [26],27.8 ± 0.59%
same,percentage of EdU-negative,hTERT-HMEC; [25],5.08 ± 0.93%
same,percentage of EdU-negative,hTERT-HMEC; [26],5.74 ± 0.25%
Q9Y6N7,percentage of EdU-negative,MCF7; [6],27 ± 0.88%
same,percentage of EdU-negative,MCF7; protein concentration 0.225 µM,25.6 ± 1.4%
same,percentage of EdU-negative,hTERT-HMEC; [6],5.33 ± 0.86%
same,percentage of EdU-negative,hTERT-HMEC; protein concentration 0.225 µM,5.81 ± 0.72%
